Laboratory results published in patent US20240218065A1 (SHENGHE CHINA BIOPHARMACEUTICAL, published 2024).
Where two headings read alike, the source gives them in different places.

T1: Human-NKP30-His (Kactus, cat: NKP-HM430) (human, UniProt O14931 19-138, limits assumed)
T1 construct: also called NKP30 protein; NKP30-his protein; not shown: His tag
T1 sequence (looked up): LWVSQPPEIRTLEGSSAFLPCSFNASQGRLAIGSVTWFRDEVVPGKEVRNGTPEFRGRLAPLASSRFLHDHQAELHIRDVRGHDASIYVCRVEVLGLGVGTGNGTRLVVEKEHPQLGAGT


Assays:
[1] = molecular target: T1, Human-NKP30-His (Kactus, cat: NKP-HM430); assay: ELISA: Human-NKP30-His coated, antibody titrated 3-fold from 10 µg/mL, HRP goat anti-human IgG-Fc, OD450-OD570
Method: (§1) Human-NKP30-His (Kactus, cat: NKP-HM430) was diluted to […] with PBS buffer at pH 7.4, added into the 96-well ELISA plate at 100 μL per well, coated overnight at 4° C., and blocked with 1% BSA blocking solution for 1 hour. The plate was washed 3 times with PBST, and the constructed antibodies were diluted to 10 μg/mL with 0.5% BSA sample diluent as the starting concentration, and then diluted by 3-fold gradient (11 gradients in total). A negative control (blank well and IgG1 isotype control) and a positive control were set, and the positive control was a NKP30 humanized antibody (sequence shown in SEQ ID No. 28), and incubated at 37° C. for 1 h at 100 μL per well. […] The absorbance value of each well in the 96-well plate was determined by selecting the wavelength of 450 nm and the reference wavelength of 570 nm on a multifunctional enzyme marker, and the absorbance value (OD)=OD₄₅₀ₙₘ−OD₅₇₀ₙₘ. The logarithm of the concentration of the constructed antibody was taken as the abscissa, and the measured absorbance value of each well was taken as the ordinate, and the Sigmoidaldose-response (Variable Slope) method (GraphPad Prism software, GraphPad Software, San Diego, California) was selected for nonlinear regression to obtain the binding curve of the target antibody to NKP30.

Human-GPC3-His [2] = molecular target: T2, Human-GPC3-His (human, UniProt P51654 25-559, limits assumed); assay: ELISA: Human-GPC3-His coated at 0.5 µg/mL, antibody titrated 3-fold from 10 µg/mL, HRP goat anti-human IgG-Fc, OD450-OD570
T2 construct: Coated on the ELISA plate; also called GPC-3 protein; GPC3 protein; not shown: His tag
T2 sequence (P51654 25-559 limits assumed): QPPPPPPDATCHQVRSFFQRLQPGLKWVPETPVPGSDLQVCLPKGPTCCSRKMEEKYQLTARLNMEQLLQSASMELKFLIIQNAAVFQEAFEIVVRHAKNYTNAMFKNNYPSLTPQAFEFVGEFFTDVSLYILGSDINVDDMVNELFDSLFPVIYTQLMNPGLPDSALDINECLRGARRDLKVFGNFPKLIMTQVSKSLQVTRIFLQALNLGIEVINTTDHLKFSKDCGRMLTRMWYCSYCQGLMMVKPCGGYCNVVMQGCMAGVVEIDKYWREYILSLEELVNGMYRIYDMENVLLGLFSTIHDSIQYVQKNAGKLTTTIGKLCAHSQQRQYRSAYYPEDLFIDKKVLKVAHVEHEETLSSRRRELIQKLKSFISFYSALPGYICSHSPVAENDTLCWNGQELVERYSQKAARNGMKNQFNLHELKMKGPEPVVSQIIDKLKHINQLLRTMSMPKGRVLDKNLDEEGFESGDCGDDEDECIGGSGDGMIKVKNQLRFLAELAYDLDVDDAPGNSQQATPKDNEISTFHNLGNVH
Method: (§2) Human-GPC3-His was diluted to 0.5 μg/mL with PBS buffer at pH 7.4, added into the 96-well ELISA plate at 100 μL per well, coated overnight at 4° C., and blocked with 1% BSA blocking solution for 1 hour. The plate was washed 3 times with PBST, and the constructed antibody was diluted to 10 μg/mL with 0.5% BSA sample diluent as the starting concentration, and then diluted by 3-fold gradient (11 gradients in total) and incubated at 37° C. for 1 h at 100 μL per well. The plate was washed 3 times with PBST, and then HRP-labelled goat anti-human IgG-Fc was diluted with the sample diluent at 1:20000. 100 μL was added into each well, and incubated at room temperature for 1 hour. A negative control (blank well and IgG1 isotype control) and a positive control were set, and the positive control was a GPC-3 and CD3 bispecial antibody from the literature Hs, A, et al. “Engineering a bispecific antibody with a common light chain: Identification and optimization of an anti-CD3 epsilon and anti-GPC3 bispecific antibody, ERY974.” Methods 154 (2019): 10-20. (The GPC-3 and CD3 bispecial antibody sequence consists of SEQ ID No. 22, SEQ ID No. 23, and SEQ ID No. 24). The plate was washed 4 times with PBST, and 100 μL of TMB substrate was added into each well, and incubated at room temperature without light for 10 minutes. 100 μL of 1 M HCl solution was added into each well to terminate the color development reaction. The absorbance value of each well in the 96-well plate was determined by selecting the wavelength of 450 nm and the reference wavelength of 570 nm on a multifunctional enzyme marker, and the absorbance value (OD)=OD₄₅₀ₙₘ−OD₅₇₀ₙₘ. The logarithm of the concentration of the constructed antibody was taken as the abscissa, and the measured absorbance value of each well was taken as the ordinate, and the Sigmoidaldose-response (Variable Slope) method (GraphPad Prism software, GraphPad Software, San Diego, California) was selected for nonlinear regression to obtain the binding curve of the target antibody to the GPC-3 protein.

[3] = molecular target: T1, Human-NKP30-His (Kactus, cat: NKP-HM430); assay: ELISA: Human-NKP30-His coated, antibody titrated 3-fold from 10 µg/mL, HRP goat anti-human IgG-Fc, OD450-OD570; remark: listed apart in the source
Method: as §1

Human-GPC3-His [4] = molecular target: T2, Human-GPC3-His; assay: ELISA: Human-GPC3-His coated at 0.5 µg/mL, antibody titrated 3-fold from 10 µg/mL, HRP goat anti-human IgG-Fc, OD450-OD570; remark: listed apart in the source
Method: as §2

[5] = molecular target: T1, Human-NKP30-His (Kactus, cat: NKP-HM430); assay: ELISA: Human-NKP30-His coated, antibody titrated 3-fold from 10 µg/mL, HRP goat anti-human IgG-Fc, OD450-OD570; remark: listed apart in the source
Method: (§3) Human-NKP30-His (Kactus, cat: NKP-HM430) was diluted to […] with PBS buffer at pH 7.4, added into the 96-well ELISA plate at 100 μL per well, coated overnight at 4° C., and blocked with 1% BSA blocking solution for 1 hour. The plate was washed 3 times with PBST, and the constructed antibodies were diluted to 10 μg/mL with 0.5% BSA sample diluent as the starting concentration, and then diluted by 3-fold gradient (11 gradients in total). A negative control (blank well and IgG1 isotype control) and a positive control were set, and the positive control was a NKP30 humanized antibody (sequence shown in SEQ ID No. 28), and incubated at 37° C. for 1 h at 100 μL per well. The plate was washed 3 times with PBST, and then HRP-labelled goat anti-human IgG-Fc was diluted with the sample diluent at 1:20000. 100 μL was added into each well, and incubated at room temperature for 1 hour. The plate was washed 4 times with PBST, and 100 μL of TMB substrate was added into each well, and incubated at room temperature without light for 10 minutes. 100 μL of 1 M HCl solution was added into each well to terminate the color development reaction. The absorbance value of each well in the 96-well plate was determined by selecting the wavelength of 450 nm and the reference wavelength of 570 nm on a multifunctional enzyme marker, and the absorbance value (OD)=OD₄₅₀ₙₘ−OD₅₇₀ₙₘ. The logarithm of the concentration of the constructed antibody was taken as the abscissa, and the measured absorbance value of each well was taken as the ordinate, and the Sigmoidaldose-response (Variable Slope) method (GraphPad Prism software, GraphPad Software, San Diego, California) was selected for nonlinear regression to obtain the binding curve of the target antibody to NKP30.

[6] = molecular target: T1, Human-NKP30-His (Kactus, cat: NKP-HM430); assay: as above; remark: listed apart in the source
Method: as §3

Row | EC50 (read off the curve) [1] | EC50 (read off the curve) (Human-GPC3-His [2]) | EC50 (read off the curve) [3] | EC50 (read off the curve) (Human-GPC3-His [4]) | EC50 (read off the curve) [5] | EC50 (read off the curve) [6] | Binder
1 | ~0.06 µg/mL | ~0.01 µg/mL | – | – | – | – | GN15-H (bispecific antibody, human IgG1, kappa, Trifunctional antibody against GPC-3 and NKP30 with IL-15 and IL-15Rα sushi between CH1 and CH2; also called constructed antibody GN15-H; multifunctional antibody) light: DVVMTQSPLSLPVTPGEPASISCRSSQSLVHSNRNTYLHWYLQKPGQSPQLLIYKVSNRFSGVPDRFSGSGSGTDFTLKISRVEAEDVGVYYCSQNTHVPPTFGQGTKLEIKRTVAAPSVFIFPPSDEQLKSGTASVVCLLNNFYPREAKVQWKVDNALQSGNSQESVTEQDSKDSTYSLSSTLTLSKADYEKHKVYACEVTHQGLSSPVTKSFNRGEC heavy 1: not shown heavy 2: QVQLVQSGAEVKKPGASVKVSCKASGYTFTDYEMHWVRQAPGQGLEWMGALDPKTGDTAYSQKFKGRVTLTADKSTSTAYMELSSLTSEDTAVYYCTRFYSYTYWGQGTLVTVSSASTKGPSVFPLAPSSKSTSGGTAALGCLVKDYFPEPVTVSWNSGALTSGVHTFPAVLQSSGLYSLSSVVTVPSSSLGTQTYICNVNHKPSNTKVDKKVEPKSCDKTHTCPPCPGGGGSGGGGSPALLLLLLLRPPATRGITCPPPMSVEHADIWVKSYSLYSRERYICNSGFKRKAGTSSLTECVLNKATNVAHWTTPSLKCIRDPALVHQRPAPPSTVTTAGVTPQPESLSPSGKEGGGGSGGGGSAPELLGGPSVFLFPPKPKDTLMISRTPEVTCVVVDVSHEDPEVKFNWYVDGVEVHNAKTKPREEQYNSTYRVVSVLTVLHQDWLNGKEYKCKVSNKALPAPIEKTISKAKGQPREPQVYTLPPSRDELTKNQVSLTCLVKGFYPSDIAVEWESNGQPENNYKTTPPVLDSDGSFFLASKLTVDKSRWQQGNVFSCSVMHEALHNHYTQKSLSLSPGK
2 | – | – | ~0.02 µg/mL | ~0.03 µg/mL | – | – | GN15-A (bispecific antibody, human IgG1, kappa, Trifunctional antibody against GPC-3 and NKP30 with IL-15 and IL-15Rα sushi between CH1 and CH2 of the two heavy chains; IgG1 knob/hole Fc; also called constructed antibody GN15-A; multifunctional antibody) light: EVQLVESGGGLVQPGGSLRLSCAASGITFSRSVMGWFRQAPGKLRELVAGITSDDNTDYADSVKGRFTISRDNSKNTLYLQMNSLRAEDTAVYYCNILPDSRLGWGQGTLVTVSSGGGGSGGGGSGGGGSDVVMTQSPLSLPVTPGEPASISCRSSQSLVHSNRNTYLHWYLQKPGQSPQLLIYKVSNRFSGVPDRFSGSGSGTDFTLKISRVEAEDVGVYYCSQNTHVPPTFGQGTKLEIKRTVAAPSVFIFPPSDEQLKSGTASVVCLLNNFYPREAKVQWKVDNALQSGNSQESVTEQDSKDSTYSLSSTLTLSKADYEKHKVYACEVTHQGLSSPVTKSFNRGEC heavy 1: not shown heavy 2: QVQLVQSGAEVKKPGASVKVSCKASGYTFTDYEMHWVRQAPGQGLEWMGALDPKTGDTAYSQKFKGRVTLTADKSTSTAYMELSSLTSEDTAVYYCTRFYSYTYWGQGTLVTVSSASTKGPSVFPLAPSSKSTSGGTAALGCLVKDYFPEPVTVSWNSGALTSGVHTFPAVLQSSGLYSLSSVVTVPSSSLGTQTYICNVNHKPSNTKVDKKVEPKSCDKTHTCPPCPGGGGSGGGGSPALLLLLLLRPPATRGITCPPPMSVEHADIWVKSYSLYSRERYICNSGFKRKAGTSSLTECVLNKATNVAHWTTPSLKCIRDPALVHQRPAPPSTVTTAGVTPQPESLSPSGKEGGGGSGGGGSAPELLGGPSVFLFPPKPKDTLMISRTPEVTCVVVDVSHEDPEVKFNWYVDGVEVHNAKTKPREEQYNSTYRVVSVLTVLHQDWLNGKEYKCKVSNKALPAPIEKTISKAKGQPREPQVYTLPPSRDELTKNQVSLTCLVKGFYPSDIAVEWESNGQPENNYKTTPPVLDSDGSFFLASKLTVDKSRWQQGNVFSCSVMHEALHNHYTQKSLSLSPGK
3 | ~0.03 µg/mL | – | ~0.03 µg/mL | – | ~0.03 µg/mL | ~0.03 µg/mL | NKP30 humanized antibody (antibody, V domains shown, detected with anti-human IgG-Fc) VH: EVQLVESGGGLVQPGGSLRLSCAASGITFSRSVMGWFRQAPGKLRELVAGITSDDNTDYADSVKGRFTISRDNSKNTLYLQMNSLRAEDTAVYYCNILPDSRLGWGQGTLVTVSS
